# According to patent publication US9273304B2, “Inactivation method” (Thermo Fisher Scientific Baltics UAB, priority 2006, dated 2016):
# Assays:
# Assay type in all cases: biochemical
# [1] = molecular target: T1, Taq DNA polymerase (Thermus aquaticus, UniProt P19821); experiment: Temperature effect on activity of modified versus unmodified Taq DNA polymerase; conditions: FIG. 7
# Experimental: The activity assay for both DNA polymerases was as described in the Example 2 with the following modifications: • 1. DNA polymerization using the unmodified DNA polymerase was carried out in the buffer of the following composition: 10 mM Tris-HCl (pH 8.8 at 25° C.), 50 mM KCl, 1.5 mM MgCl2, and 0.08% Nonidet P40. • 2. DNA polymerization using the modified DNA polymerase was carried out in the buffer of the following composition: 20 mM Tris-HCl (pH 8.3 at 25° C.), 20 mM KCl, 5 mM (NH4)2SO4, and 1.5 mM MgCl2.
# Enzyme activities at different temperatures were normalized to the activity of the unmodified Taq DNA polymerase at 70° C.
# [2] = system: CFTR gene or insulin gene, human genome DNA as template; experiment: PCR specificity and efficiency, mixtures set up at room temperature (CFTR and insulin gene fragments)
# Experimental: Sets of PCR reactions were carried out in the Mastercycle (Eppendorf). The reactions performed using 2 units of both the unmodified and the modified enzymes. Composition of the buffer used in the experiments with the modified Taq DNA polymerase was described in the Example 7. The unmodified Taq DNA was tested in the buffer of the following compositions: 75 mM Tris-HCl (pH 8.8 at 25° C.), 20 mM (NH4)SO4, 0.01% Tween20. Both buffers were supplemented with 2 mM MgCl2, 0.2 mM dNTP, 0.5 μm of each PCR primer and human DNA (100 ng/50 μl). For amplification of 950 by DNA fragment of the CFTR gene, the same set of PCR primers was used as described in the Example 8. A 400 bp fragment of the insulin gene was amplified with the following set of PCR primers: […]
# The components of PCR were mixed at room temperature and the reactions were performed using the following cycling profiles: • 1. For the 950 bp amplicon: 95° C.—5 min; (95° C.—[…], 50° C.—0.5 min, 72° C.—1 min)—40 cycles; 72° C.—7 min. • 2. For the 400 bp amplicon: 95° C.—5 min; (95° C.—0.5 min, 65° C.—0.5 min, 72° C.—1 min)—40 cycles; 72° C.—7 min.
# After completion of PCR, the samples were mixed with aliquots (10 μl) of the 6× MassRuller™ Loading Dye (Fermentas), and the samples were analyzed by gel electrophoresis in 1.7% agarose. The Gene Ruler™ 100 bp DNA Ladder Plus (Fermentas) was used for evaluation of the amplicon size. Electrophoresis was performed in the TBE buffer (89 mM Tris, 89 mM H3BO3, and 1 mM EDTA) at 5 V/cm for 75 min. After completion of electrophoresis, gels were stained with ethidium bromide (0.5 μg/ml). Then, gels were destained in MiliQ-quality water for 20 minutes. DNA bands were visualized under UV.
# [3] = molecular target: T1, Taq DNA polymerase; experiment: Activity in PCR measured by incorporation of [3H]-dTTP into the PCR product (pH and Mg2+ effect)
# Experimental: Activity of Taq DNA polymerase modified with N-ethoxycarbonyl-N-2,3-dimethylmaleinimide at different pH during was measured by incorporation [^3H]-dTTP nucleotide into the PCR product.
# Sets of PCR were carried out at the following pH values determined at 25° C.: 8.2, 8.3, 8.4, 8.5, 8.6, 8.7, and 8.8. The reactions were preformed in the GeneAmp® PCR System 9700 (Applied Biosystems) using 1.25 units of the modified enzymes in aliquots ([…] of the reaction buffer of the following composition: 20 mM Tris-HCl (pH values indicated above), 20 mM KCl, 5 mM (NH4)SO4, 1.5 mM MgCl2 supplemented with 0.2 mM dNTP, 0.8 MBq/ml [^3H]-dTTP, 0.5 […] of both PCR primers ([SEQ ID NO: 1] 5′-[…]-3′ and [SEQ ID NO: 2] 5′-[…]-3′), and human DNA (10 ng/50 μl).
# Thermal cycling profile was the following: 95° C.—4 min; (95° C.—0.5 min, 50° C.—0.5 min, 72° C.—1 min)—30 cycles; 72° C.—7 min.
# Activity of the modified DNA polymerase in PCR was determined as described in the Example 8. A set of PCR reactions was carried out in the reaction buffer (see Example 7) supplemented with the following Mg^2+ concentrations: 1 mM, 1.5 mM, 2 mM, 2.5 mM, 3 mM, 3.5 mM, 4 mM, 5 mM, 6 mM, 7 mM, and 8 mM.
# [4] = molecular target: T1, Taq DNA polymerase; experiment: Reactivation of the modified Taq DNA polymerase by pre-incubation, activity measured at 50° C.
# Experimental: The activity of modified Taq DNA polymerase was assayed as described in the Example 2. The enzyme was pre-incubated at different temperatures in the pre-heating buffer (see Example 2), its activity was measured at 50° C. in the reaction buffer of the following composition: 50 mM Tris (pH 8.4 at 25° C.), 10 mM KCl, 5 mM (NH4)2SO4 and 2 mM MgCl2. The activity of the modified DNA polymerase was normalized the activity of the unmodified one.
# T1 sequence (P19821 whole entry): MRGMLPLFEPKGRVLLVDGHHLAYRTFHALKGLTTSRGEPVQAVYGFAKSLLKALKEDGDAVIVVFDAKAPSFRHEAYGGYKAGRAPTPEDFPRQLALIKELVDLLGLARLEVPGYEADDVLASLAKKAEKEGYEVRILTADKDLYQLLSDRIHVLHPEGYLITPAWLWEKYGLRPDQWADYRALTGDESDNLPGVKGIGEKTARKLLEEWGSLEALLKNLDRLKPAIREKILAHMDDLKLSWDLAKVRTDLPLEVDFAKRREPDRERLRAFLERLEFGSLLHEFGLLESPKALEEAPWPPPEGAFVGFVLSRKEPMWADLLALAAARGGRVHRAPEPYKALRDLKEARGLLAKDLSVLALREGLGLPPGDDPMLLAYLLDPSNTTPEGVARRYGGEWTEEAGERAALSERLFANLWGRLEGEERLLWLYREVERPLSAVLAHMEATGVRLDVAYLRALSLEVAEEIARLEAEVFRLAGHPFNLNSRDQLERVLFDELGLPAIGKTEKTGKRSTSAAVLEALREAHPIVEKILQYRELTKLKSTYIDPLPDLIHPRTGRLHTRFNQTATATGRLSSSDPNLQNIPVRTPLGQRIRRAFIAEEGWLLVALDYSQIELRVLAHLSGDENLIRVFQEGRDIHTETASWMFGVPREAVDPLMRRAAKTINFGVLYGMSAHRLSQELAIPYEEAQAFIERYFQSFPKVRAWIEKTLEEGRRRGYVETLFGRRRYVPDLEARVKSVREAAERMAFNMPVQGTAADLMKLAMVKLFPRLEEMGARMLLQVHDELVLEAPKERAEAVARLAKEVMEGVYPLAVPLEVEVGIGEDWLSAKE
substance,measurement,setting,value
"Taq DNA polymerase modified with N-etoxycarbonyl-2,3-dimethylmaleinimide: Recombinant Taq DNA polymerase reversibly inactivated by reaction with N-ethoxycarbonyl-2,3-dimethylmaleinimide in aqueous solution (preferred molar ratio 1/110)",residual activity at 70° C.,"[1]; 70° C., normalized to unmodified Taq DNA polymerase at 70° C.",~20%
same,activity at different temperatures up to 50° C.,"[1]; up to 50° C., without reactivation",practically inactive
same,yield of unspecific PCR byproducts versus unmodified DNA polymerase,"[2]; CFTR and insulin gene fragments, PCR set up at room temperature, FIG. 10",lesser yield
same,yield of the byproducts caused by the primer dimerization versus unmodified DNA polymerase,[2]; insulin gene 400 bp fragment,lower
same,yield of the insulin amplicon versus unmodified DNA polymerase,[2]; insulin gene 400 bp fragment,higher yield
same,activity within the 1.5-5.0 mM range of Mg2+ concentrations,[3]; 1.5-5.0 mM Mg2+,≥ 70%
same,Activity at 70° C. (%),"[3]; [Mg2+] 1 mM, incorporation of [3H]-dTTP into the PCR product",~0%
same,Activity at 70° C. (%),[3]; [Mg2+] 1.5 mM,~70%
same,Activity at 70° C. (%),[3]; [Mg2+] 2.0 mM,~70%
same,Activity at 70° C. (%),[3]; [Mg2+] 2.5 mM,~100%
same,Activity at 70° C. (%),[3]; [Mg2+] 3.0 mM,~100%
same,Activity at 70° C. (%),[3]; [Mg2+] 3.5 mM,~100%
same,Activity at 70° C. (%),[3]; [Mg2+] 4.0 mM,~90%
same,Activity at 70° C. (%),[3]; [Mg2+] 5.0 mM,~70%
same,Activity at 70° C. (%),[3]; [Mg2+] 6.0 mM,~30%
same,Activity at 70° C. (%),[3]; [Mg2+] 7.0 mM,~20%
same,Activity at 70° C. (%),[3]; [Mg2+] 8.0 mM,~10%
same,Activity at 70° C. (%),"[3]; ambient pH 8.2, incorporation of [3H]-dTTP into the PCR product",~30%
same,Activity at 70° C. (%),[3]; ambient pH 8.3,~80%
same,Activity at 70° C. (%),[3]; ambient pH 8.4,~100%
same,Activity at 70° C. (%),[3]; ambient pH 8.5,~100%
same,Activity at 70° C. (%),[3]; ambient pH 8.6,~100%
same,Activity at 70° C. (%),[3]; ambient pH 8.7,~100%
same,Activity at 70° C. (%),[3]; ambient pH 8.8,~60%
same,activity within the pH 8.3-8.7 range,[3]; pH 8.3-8.7,≥ 80%
same,Activity at 50° C. (%),[4]; incubation time at 95° C. 0 min,~0%
same,Activity at 50° C. (%),"[4]; incubation time at 95° C. 0.5 min, listed as modified Taq DNA polymerase",~60%
same,Activity at 50° C. (%),"[4]; incubation time at 95° C. 0.5 min, listed as modified enzyme",~60%
same,Activity at 50° C. (%),"[4]; incubation time at 95° C. 1 min, listed as modified Taq DNA polymerase",~90%
same,Activity at 50° C. (%),"[4]; incubation time at 95° C. 1 min, listed as modified enzyme",~90%
same,Activity at 50° C. (%),[4]; incubation time at 95° C. 1.5 min,~90%
same,Activity at 50° C. (%),[4]; incubation time at 95° C. 2.0 min,~100%
same,Activity at 50° C. (%),[4]; incubation time at 95° C. 3.0 min,~100%
same,reactivation by preheating at 90° C.,"[4]; preheated at 90° C. for several minutes, FIG. 8",regained full activity
